Source: US20230016112A1 (IBIO, published 2023)

T1: full-length CD25 (human, UniProt P01589 22-186, limits assumed)
T1 construct: The assays used soluble 'full-length CD25'; also called Hu CD25; IL-2 receptor alpha chain
T1 chain: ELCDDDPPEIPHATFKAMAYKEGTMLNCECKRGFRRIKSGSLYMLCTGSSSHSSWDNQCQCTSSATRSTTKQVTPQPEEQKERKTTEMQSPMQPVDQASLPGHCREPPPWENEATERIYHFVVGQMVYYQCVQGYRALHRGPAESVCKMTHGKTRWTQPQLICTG

B1: YU392-B11 (antibody)
scFv: PGATVKISCKVSGYTFTDYYMHWVQQAPGKGLEWMGLVDPEDGETIYAEKFQGRVTITADTSTDTAYMELSSLRSEDTAVYYCAVEGGRAPGTYYYDSSGLAYWGQGTLVTVSSQAGLTQPPSASGTPGQRVTISCSGSSSNIGSNYVYWYQQLPGTAPKLLIYSNNQRPSGVPDRFSGSKSGTSASLAISGLRSEDEADYYCATWDDSLSGVVFGGGTKLTVL
notes: Tested as full-length human IgG1
B2: YU392-G12 (antibody)
scFv: QVQLQESGSGLVKPSQTLSLTCAVSGGSISSGGYSWSWIRQPPGKGLEWIGYIYHSGSTYYNPSLKSRVTISVDRSKNQFSLKLSSVTAADTAVYYCARAGYYYGMDVWGQGTTVTVSSDIVMTQTPSSLSASVGDRVAITCQASRNIWSYVNWYQQKPGEAPRLLIYGASTLQRGVPSRFSGSGSGTGFTLTINSLQPEDFATYFCQQSHSTPITFGGGTRVDIK
notes: as for B1
B3: YU390-B12 (antibody)
scFv: PGRSLRLSCAASGFTFSSYGMHWVRQAPGKGLEWVAVISYDGSNKYYADSVKGRFTISRDNSKNTLYLQMNSLRAEDTAVYYCAKELLEGAFDIWGQGTMVTVSSSYVLTQPPSLSVAPGQTARITCGGDNIETKSVHWYQQRPGQAPVLVVYDDDDRPSGIPERFSGSNSGNTATLTISRVEAGDEADYYCQVWDSSSGHREVFGGGTKLTVL
notes: as for B1
B4: YU400-B07 (antibody)
scFv: PGRSLRLSCAASGFTFSSYGMHWVRQAPGKGLEWVAVISYDGSNKYYADSVKGRFTISRDNSKNTLYLQMNSLRAEDTAVYYCAKGDVNYGMDVWGQGTTVTVSSSYVLTQPPSVSVAPGKTARITCGGNNIGSKSVHWYQQKPGQAPVLVVYDDTDRPSGIPERFSGSNSGNTATLTISRVEAGDEADYYCQVWDSSSDLLWVFGGGTKLAVL
notes: as for B1
B5: YU397-D01 (antibody)
scFv: PSGTLSLTCAVSGGSISSSNWWSWVRQPPGKGLEWIGEIYHSGSTNYNPSLKSRVTISVDKSKNQFSLKLSSVTAADTAVYYCARARGGRYFDYWGQGTLVTVSSDIVLTQSPSFLSASVGDRVTITCRASQGISTYLAWYQQKPGTAPKVLMYAASTLHSGVPSRFSGSGSGTEFTLTISSLQPEDFAIYYCQQLNGYPTTFGGGTRVEIK
notes: as for B1
B6: YU401-G07 (antibody)
scFv: LGRSLRLSCAASGFTFSSYGMHWVRQAPGKGLEWVAVISYDGSNKYYADSVKGRFTISRDNSKNTLYLQMNSLRAEDTAVYYCAKGDVNYGMDVWGQGTTVTVSSSYVLTQPPSVSVAPGQTARISCGGSNIGSKTVNWYRKKAGQAPVLVVYDGRDRPSGIPERFSGSNSGNAATLIISRVEVGDEADYYCQVWDTSGDLHWAFGGGTKLTVL
notes: as for B1
B7: YU392-E06 (antibody)
scFv: QLQLQESGPGLVKPSGTLSLTCAVSGGSISSSNWWSWVRQPPGKGLEWIGEIYHSGSTNYNPSLKSRVTISVDKSKNQFSLKLSSVTAADTAVYYCARERTHYYYGMDIWGQGTTVTVSSQSVLTQPPSTSGTPGQRVTISCSGSSSNIGSNTVNWYHQLPGTAPRLLIYSNNQRPSGVPDRFSGSKSGTSASLALSGLQSEDEGDYYCAAWDDSLNGYVFGTGTKVTVL
notes: as for B1
B8: YU392-H02 (antibody)
scFv: QLQLQESGPGLVNLSQTLSLTCTVSGGSISSGGYYWSWIRQHPGKGLEWIGYIYYSGSTYYNPSLKSRVTISVDTSKNQFSLKLSSVTAADTAVYYCARDSSSGPYGMDVWGQGTTVTVSSQSVLTQPPSVSVAPGQTARVTCGGSNIGSQSVHWYQQKPGQAPVLVVYDDYDRPSGIPERFSGSNSGNTATLTITRVDAGDEADYYCQIWDSSSAHVVFGGGTKLTVL
notes: as for B1
B9: YU403-G05 (antibody)
scFv: PSGDLSLTCDVSGGSISRSNWWIWVRQPPGKGLEWIGEIYHTGSTNYNPSLKRRVTISVDKSKNQFSLNLSSVTAADTAVYYCARGKGSYAFDIWGLGTMVTVSSVLTQPHSVSESPGKTVTISCTGSGGNIARNYVQWYQHRPGRAPSTVIYEDDRRPSGVPDRFSGSTDISSNSASLTISGLKTEDEADYYCQSYDGNNHMVFGGGTRVTVL
notes: as for B1
B10: YU392-H04 (antibody)
scFv: QVQLQESGPGLVKPSGTLSLTCAVSGGSISSSNWWSWVRQPPGKGLEWIGEIYHSGSTNYNPSLKSRVTISVDKSKNQFSLKLSSVTAADTAVYYCARVNYGDYDWYFDLWGRGTLVTVSSQPVLTQPPSASGTPGQRVTISCSGSSSNIGSNFVTWYQQLPGTAPKLLIYSNNQRPSGVSDRFSASKSGTSASLAISRLQSQDEAEYYCAAWDDSLRSYVFGSGTKVTVV
notes: as for B1
B11: YU392-G09 (antibody)
scFv: QVQLVQSGAEVKKPGSSVKVSCKASGGTFSSYAISWVRQAPGQGLEWMGGIIPIFGTANYAQKFQGRVTITADESTSTAYMELSSLRSEDTAVYYCARDGAGNYDILTGDRSEDYYYYYGMDVWGQGTTVTVSSSYELTQPPSASGAPGQRVSISCSGGYSNIGSNTVNWYQQLPGAAPKFLIYSDNQRPSGVPDRFSGSKSGTSASLAISGLQSEDEADYYCATWDDSLNGPVFGGGTKLTVL
notes: as for B1
B12: YU401-B01 (antibody)
scFv: PGSSVKVSCKASGGTFSSYAISWVRQAPGQGLEWMGGIIPIFGTANYAQKFQGRVTITADESTSTAYMELSSLRSEDTAVYYCAREMYYYYGMDVWGQGTTVTVSSDIVMTQSPSSLSASVGDRVTITCRASQSIITYLNWYQQKPGKVPKLLIYAASSLQSGVPSRFSGSGSGTDFTLTISSLQPEDFATYYCQQSYSTPPTFGQGTKLEIK
notes: as for B1
B13: YU398-A11 (antibody)
scFv: PGRSLRLSCAASGFTFSSYGMHWVRQAPGKGLEWVAVISYDGSNKYYADSVKGRFTISRDNSKNTLYLQMNSLRAEDTAVYYCAKGQGDGMDVWGQGTTVTVSSYELTQPPSASGTPGQRVTISCSGSSSNVGSRTVSWFQQLPGTAPKLLIYSNNLRPSGVPDRFSGSKSGTSASLAISGLQSEDEADYYCAAWDDSLIGHVFGTGTKVTVV
notes: as for B1
B14: YU392-E05 (antibody)
scFv: QVQLQESGPGLVKPSGTLSLTCTVSGGSISSSNWWSWVRQPPGKGLEWIGEIYHSGSTNYNPSLKSRVTISVDKSKNQFSLKLSSVTAADTAVYYCARGVIAAAGTYFDYWGQGTLVTVSSQAVLTQPPSASGTPGQRVTISCSGSRPNVASNSVNWYQQFPGTAPRLLIYSDNQRPSGVPDRFSGSKSGTSASLAISGLQFEDEADYYCETWDDSLRGVVFGGGTKVTVL
notes: as for B1
B15: YU392-A09 (antibody)
scFv: PGATVKISCKVSGYTFTDYYMHWVQQAPGKGLEWMGLVDPEDGETIYAEKFQGRVTITADTSTDTAYMELSSLRSEDTAVYYCATEGRYGMDVWGQGTTVTVSSQAVLTQPPSVSGTPGQRVTISCSGNNFNIGNNLVYWYQQLPGTAPKLLIYANDERPSGVPDRFSGSKSGTSASLAISGLRSEDDADYYCATWDDSLSGVVFGGGTKLTAL
notes: as for B1
B16: YU389-A03 (antibody)
scFv: PSQTLSLTCTVSGGSISSGGYYWSWIRQHPGKGLEWIGYIYYSGSTYYNPSLKSRVTISVDTSKNQFSLKLSSVTAADTAVYYCARGNLWSGYYFWGQGTLVTVSSQSVLTQPPSVSAAPGQKVTISCSGSSSNIGNNFVSWYQQVPGTAPKLLTYDSTKRPAGIPDRFSGSKSGTSATLEIAGLQTGDEADYYCGSWDTNLSGYVFGTGTKVTVL
notes: as for B1
B17: YU400-D09 (antibody)
scFv: PGSSVKVSCKASGGTFSSYAISWVRQAPGQGLEWMGGIIPIFGTANYAQKFQGRVTITADESTSTAYMELSSLRSEDTAVYYCARDFNPFSITIFEMDVWGQGTTVTVSSQSVLTQPPSVSAAPGQKVTISCSGSSSNIGNNYVSWYQQLPGTAPKLLIYDNNKRPSGIPDRFSGSKSGTSATLGITGLQTGDEADYYCGTWDSSLSALVFGGGTKLTVL
notes: as for B1

Target: T1, full-length CD25
Assay: Octet biolayer interferometry, human IgG1 against CD25

| Binder | Kd [nM] |
| --- | --- |
| B1 | 65.6 |
| B2 | 25.7 |
| B3 | 13.7 |
| B4 | 57.8 |
| B5 | 3.86 |
| B6 | 15.3 |
| B7 | 8.3 |
| B8 | 10.6 |
| B9 | 31.9 |
| B10 | 9.1 |
| B11 | 20.2 |
| B12 | 70.4 |
| B13 | 12.1 |
| B14 | 16.1 |
| B15 | 12.4 |
| B16 | 9.55 |
| B17 | 54.5 |
